Source: patent publication US9217032B2, “Methods for treating colorectal cancer” (LES LABORATOIRES SERVIER, priority 2010, dated 2015)

Columns and labels:
[1] = tested on: CRC1 primary colorectal cancer cells; test: Spheroid formation by CRC1 cells in low adherence culture, monoclonal antibodies; assay type: cell-based, human; conditions: CRC1, 3 μg/ml; p<0.05 one-way ANOVA with Bonferroni; FIG. 20
Procedure: CRC1 cells were obtained from a human colon carcinoma biopsy according to standard procedures. After being dissociated in Accumax (Sigma) for 45 minutes at 37° C., cells were plated in low adherence 96 well-plates (Corning) at a density of 100 cells per well in M11 medium (DMEM/F12 with 20 ng/ml EGF, 10 ng/ml FGF, 20 μg/ml insulin, N2 supplement, 2 μg/ml cyproflaxin, 5 μg/ml gentamycin and 3 mg/ml glucose). For each treatment arm, 10 wells were used. Starting on the first day, cells were treated twice daily with one of four different anti-progastrin monoclonal antibodies, MAb5, MAb8, MAb13 or MAb16 (3 μg/ml) or the same concentration of monoclonal antibody P3X63Ag8 (ATCC, Ref TIB-9) or medium with no antibody added as controls. Thereafter, treatment was performed once daily for 8 days. Spheres were photographed daily for subsequent counting. All experiments were carried out in blinded fashion. After the conclusion of the experiment, the number of spheres from each treatment art was counted.

[2] = tested on: CRC1 primary colorectal cancer cells; test: Pre-treatment of CRC1 cells: spheroids in low adherence culture; assay type: cell-based, human; conditions: 72 hours pre-treatment, then 7 days low adherence without antibody, FIG. 23, MAb5, MAb8, MAb16 p<0.05
Procedure: (§1) CRC1 cells were obtained from a human colon carcinoma biopsy according to standard procedures. After being dissociated in Accumax (Sigma) for 45 minutes at 37° C., CRC1 cells (100,000 cells/well) were grown under conventional adherent culture conditions in serum free DMEM medium for 72 hours in the presence or absence of anti-hPG monoclonal antibodies MAb5, MAb8, MAb13 or MAb16. Experiments were carried out in blinded fashion. At the end of the treatment period, two different assays were performed on the cells. First, the percentage of cells expressing ALDH1, a marker of colorectal cancer stem cells, was determined by FACS. In the second assay, for each treatment group, 200 cells/well were plated in six wells of a low adherence 24-well plate in 500 μl of serum-free M11 medium supplemented with bFGF and EGF, and grown for 7 days without further treatment. At the end of this period, photographs were taken and the number of spheres per well was counted, and sphere surface area measured.

[3] = tested on: CRC1 primary colorectal cancer cells; test: Pre-treatment of CRC1 cells: ALDH1 expressing cells by FACS; assay type: cell-based, human; conditions: 72 hours in conventional adherent culture; FIG. 22
Procedure: as §1

[4] = tested on: SW620 colorectal cancer cells; test: Cells isolated from SW620 metastases of treated nude mice: cell count and spheroid growth; assay type: in vivo, BALBc/nude mice
Procedure: (§2) Using standard techniques, immunodeficient BALBc/nude mice were given intra-splenic injections of human metastatic SW620 colorectal cancer cells. The mice were then administered the anti-hPG monoclonal antibody MAb3 or a control monoclonal antibody twice per week for a total of six weeks. For each antibody, the dose was 8 mg/kg. At the end of the treatment period tissue was dissected from metastases from both treated and control mice. Tumor cells were disaggregated by treatment of the dissected tissue with Accumax, filtered and counted. A total of 23,800 viable tumor cells were obtained from metastatic tissue from the mice treated with MAb3, and 36,400 were obtained from control mice.
(§3) For the spheroid test, for each of the treated and control cells, 2,000 cells/well were seeded into five wells of low adherence cultureware in M11 medium supplemented with bFGF and EGF. Cells were grown for seven days, and then the number of spheroids that formed in each well was counted. For the transplantation test, spheroids developing from cells isolated from treated and control metastases were pooled, disaggregated and counted. A total of 20,000 cells were obtained from spheroids derived from treated metastases, and 110,000 cells were obtained from spheroids derived from control metastases. […] Tumor volume was then calculated through time in both animals.

[5] = tested on: SW620 metastatic colorectal cancer cells; test: Pre-treatment of SW620 cells: ALDH1 positive cells (ALDEFLUOR); assay type: cell-based, human; conditions: pre-treatment 72 hours, 1 μg/ml, FIG. 25
Procedure: (§4) Cells tested were from the metastatic colorectal cancer cell lines T84 and SW620. Cells were first grown in conventional adherent cultureware for 72 hours in the presence of the anti-progastrin monoclonal antibody MAb3 (1 μg/ml), a control monoclonal antibody, the chemotherapeutic agent 5-fluorouracil (5FU 10 μM), or the solvent dimethylsulfoxide (DMSO). After treatment, cells were subjected to two assays. In the first, the percentage of cells positive for the cancer stem cell marker ALDH1 were determined using an ALDEFLUOR kit (Stemcell Technologies). In the second assay, for each treatment group, cells were plated into six wells of low adherence 96 well-plates at a density of 500 cells per well in 100 μl of serum-free medium containing bFGF and EGF and grown for 11 days without further treatment. After the end of this period, the number of spheroids per well was then counted.

SW620 cells = test: Hepatic metastases by SW620 cell xenografts in nude mice, monoclonal antibody; assay type: in vivo, BALBc/nude mice
Procedure: A total of 5×10^6 SW620 cells were injected into the spleen of each of 20 BALBc/nude mice at age 5 weeks old. Two minutes after injection of the cells, the spleens were surgically removed. After recovery, mice were randomly divided into two groups, each of which was subjected to one of two different treatments. Specifically, 10 mice were injected with a control antibody (anti-human IgG1Fc) diluted in PBS, and 10 mice were injected with anti-hPG monoclonal antibody MAb3, also diluted in PBS. The dose of antibodies was 8 mg/kg in a volume of 150 microliters. Injections were made intraperitoneally twice per week for six weeks. Once per week each mouse was weighed. Six weeks later, after the course of injections was finished, the mice were euthanized with carbon dioxide and the livers were removed and the number of visible metastases present was counted.

[6] = tested on: T84 metastatic colorectal cancer cells; test: Pre-treatment of T84 cells: ALDH1 positive cells (ALDEFLUOR); assay type: cell-based, human; conditions: pre-treatment 72 hours, 1 μg/ml, FIG. 24
Procedure: as §4

[7] = tested on: T84 metastatic colorectal cancer cells; test: Growth of T84 cells in culture; assay type: cell-based, human; conditions: FIG. 7; P value 0.0370 Mann Whitney
Procedure: (§5) SW620 cells were seeded into 6-well plates, serum-starved overnight, then treated every 12 hours with PBS, 3 microgram/ml control antibody (Mouse anti-human IgG1, Calbiochem, Ref #411451) or four different anti-PG monoclonal antibodies, MAb3, MAb4, MAb2, and MAb1. The experiment was carried out in duplicate, and the technician was blinded as to the contents of the treatment solutions. Forty-eight hours after the start of the treatments the number of surviving cells in each well were counted six times and averaged.
The methods employed for this experiment were similar to those used to measure the effect of anti-progastrin monoclonal antibodies on SW620 cells, except that the anti-progastrin antibody used was anti-hPG MAb3.

[8] = tested on: SW620 colorectal cancer cells; test: Initiation of new tumors after transplantation of cells from treated metastases; assay type: in vivo, BALBc/nude mice; conditions: 6,500 cells subcutaneously into thighs of two nude mice; tumor volume; FIG. 29
Procedure: as §2, §3

[9] = tested on: SW620 metastatic colorectal cancer cells; test: Growth of SW620 cells in culture, monoclonal antibodies; assay type: cell-based, human; conditions: for reduction of growth of SW620 cells compared to control antibody: MAb1-MAb4, 48 hours; for Cell numbers: SW620, 48 hours, treated every 12 hours, average cells per well minus cells seeded (T0), CT antibody-T0 158556
Procedure: as §5
In a separate experiment, SW620 cells were seeded into 6-well plates (100,000 cells per well) and treated similarly above with 5 μg/ml of anti-hPG monoclonal antibodies 5-23 (i.e., MAb5-MAb23) or 5 μg/ml control antibody. After 48 hours the number of viable cells were counted from which the number of cells at the beginning of the experiment (i.e., T0) were subtracted. The number of surviving cells in the specific antibody treated wells was then expressed as a percentage of the control.

Row | Molecule | number of spheroids formed compared to non-specific antibody and medium alone [1] | number of spheroids formed after pre-treatment compared to control [2] | number of CRC1 cells expressing ALDH1 compared to control [3] | viable tumor cells obtained from metastatic tissue ([4]; 8 mg/kg twice per week for six weeks, control mice 36,400) | growth as spheroids of cells isolated from in vivo metastases ([4]; mice treated 8 mg/kg twice per week six weeks, 2,000 cells/well, seven days, FIG. 28) | number of ALDH1 positive cells compared to control antibody [5] | mean weight of liver metastases (SW620 cells; 8 mg/kg i.p. twice per week, six weeks, control mice 167 mg, not statistically significant) | decrease of mean number of metastases versus control antibody (SW620 cells; 8 mg/kg i.p. twice per week, six weeks, p=0.0372) | mean number of metastases (SW620 cells; 8 mg/kg intraperitoneally twice per week for six weeks, control antibody 7.3) | number of ALDH1 positive cells compared to control antibody [6] | reduction of growth of T84 cells compared to control antibody [7] | ability to initiate new tumor growth after transplantation [8] | reduction of growth of SW620 cells compared to control antibody [9] | Cell numbers [9]
1 | MAb8: murine C-terminal anti-hPG monoclonal antibody, hybridoma 1C10D3B9, VH SEQ ID NO:59, VL SEQ ID NO:63 (antibody, V domains shown) VH: EVQLVESGGGLVKPGGSLKLSCAASGFTFTTYAMSWVRQTPEKRLEWVATISSGGTYTYYPDSVKGRFTISRDNAKNALYLQMSSLRSEDTAMYYCATQGNYSLDFWGQGTSLTVSS VL: DIVMTQAASSNPVTLGTSASISCRSSKSLRHTKGITFLYWYLQKPGQSPQLLIYQMSNLASGVPDRFSSSGSGTDFTLRISRVEAEDLGVYYCAQNLELPLTFGAGTKLELK | effective to reduce the number spheroids | effective to reduce the number of spheroids | reduce the number CRC1 primary colorectal cancer cells expressing ALDH1 | – | – | – | – | – | – | – | – | – | – | –
2 | MAb3: murine N-terminal anti-hPG monoclonal antibody, hybridoma 6B5B11C10, VH SEQ ID NO:12, VL SEQ ID NO:13 (antibody, V domains shown) VH: EVQLQQSGTVLARPGASVKMSCKASGYIFTSYWVHWVKQRPGQGLEWIGGFYPGNSDSRYNQKFKGKATLTAVTSASTAYMDLSSLTNEDSAVYFCTRRDSPQYWGQGTTLTVSS VL: DVLMTQTPLSLPVSLGDQASISCRSSQSIVHSNGNTYLEWYLQKPGQSPKLLIYKVSNRFSGVPDRFSGSGSGTDFTLKISRLEAEDLGVYYCFQGSHVPFTFGGGTKLEIK | – | – | – | 23,800 | reduced | reduced | 96 mg | 41% | 4.3 | reduced | effective to reduce the growth of T84 metastatic colorectal cancer cells | reduced | more effective than the others | 50056
3 | MAb4: murine N-terminal anti-hPG monoclonal antibody, hybridoma 20D2C3G2, VH SEQ ID NO:14, VL SEQ ID NO:15 (antibody, V domains shown) VH: QVQLQQSGAELMKPGASVKISCKATGYTFSSSWIEWLKQRPGHGLEWIGEFLPGSGSTDYNEKFKGKATFTADTSSDTAYMLLSSLTSEDSAVYYCATDGNYDWFAYWGQGTLVTVSA VL: DLVMTQTPLSLPVSLGDQASISCRSSQSLVHSSGVTYLHWYLQKPGQSPKLLIYKVSNRFSGVPDRFSGSGSGTDFTLKISRVEAEDLGVYFCSQSTHVPPTFGSGTKLEIK | – | – | – | – | – | – | – | – | – | – | – | – | more effective than the others | 52984
